B1: T1D2 TCR: TCR specific to IGRP 305-324, HLA-DR0401 restricted; TCRα SEQ ID NO: 9, TCRβ SEQ ID NO: 10 (protein)
alpha: MAMLLGASVLILWLQPDWVNSQQKNDDQQVKQNSPSLSVQEGRISILNCDYTNSMFDYFLWYKKYPAEGPTFLISISSIKDKNEDGRFTVFLNKSAKHLSLHIVPSQPGDSAVYFCAATRTSGTYKYIFGTGTRLKVLANIQNPDPAVYQLRDSKSSDKSVCLFTDFDSQTNVSQSKDSDVYITDKTVLDMRSMDFKSNSAVAWSNKSDFACANAFNNSIIPEDTFFPSPGKGSFGAFAGCFLASGMARFCPELWSMMSKTPLIGGLG
beta: MSISLLCCAAFPLLWAGPVNAGVTQTPKFRILKIGQSMTLQCTQDMNHNYMYWYRQDPGMGLKLIYYSVGAGITDKGEVPNGYNVSRSTTEDFPLRLELAAPSQTSVYFCASSPWGAGGTDTQYFGPGTRLTVLEDLKNVFPPEVAVFEPSEAEISHTQKATLVCLATGFYPDHVELSWWVNGKEVHSGVSTDPQPLKEQPALNDSRYCLSSRLRVSATFWQNPRNHFRCQVQFYGLSENDEWTQDRAKPVTQIVSAEAWGRADCGFTSESYQQGVLSATILYEILLGKATLYAVLVSALVLMAMVKRKDSRG
B2: T1D4 TCR: TCR specific to IGRP 241-260; TCRα SEQ ID NO: 19, TCRβ SEQ ID NO: 20 (protein)
alpha: MKSLRVLLVILWLQLSWVWSQKDQVFQPSTVASSEGAVVEIFCNHSVSNAYNFFWYLHFPGCAPRLLVKGSKPSQQGRYNMTYERFSSSLLILQVREADAAVYYCAVEDLNQAGTALIFGKGTTLSVSSNIQNPDPAVYQLRDSKSSDKSVCLFTDFDSQTNVSQSKDSDVYITDKTVLDMRSMDFKSNSAVAWSNKSDFACANAFNNSIIPEDTFFPSPGKGSFGAFAGCFLASGMARFCPELWSMMSKTPLIGGLG
beta: MGSRLLCWVLLCLLGAGPVKAGVTQTPRYLIKTRGQQVTLSCSPISGHRSVSWYQQTPGQGLQFLFEYFSETQRNKGNFPGRFSGRQFSNSRSEMNVSTLELGDSALYLCASSLALGQGNQQFFGPGTRLTVLEDLKNVFPPEVAVFEPSEAEISHTQKATLVCLATGFYPDHVELSWWVNGKEVHSGVSTDPQPLKEQPALNDSRYCLSSRLRVSATFWQNPRNHFRCQVQFYGLSENDEWTQDRAKPVTQIVSAEAWGRADCGFTSESYQQGVLSATILYEILLGKATLYAVLVSALVLMAMVKRKDSRG
B3: T1D5-1 TCR: TCR specific to IGRP 305-324; TCRα SEQ ID NO: 29, TCRβ SEQ ID NO: 30 (protein)
alpha: MLLITSMLVLWMQLSQVNGQQVMQIPQYQHVQEGEDFTTYCNSSTTLSNIQWYKQRPGGHPVFLIQLVKSGEVKKQKRLTFQFGEAKKNSSLHITATQTTDVGTYFCAGQTGANNLFFGTGTRLTVIPYIQNPDPAVYQLRDSKSSDKSVCLFTDFDSQTNVSQSKDSDVYITDKTVLDMRSMDFKSNSAVAWSNKSDFACANAFNNSIIPEDTFFPSPGKGSFGAFAGCFLASGMARFCPELWSMMSKTPLIGGLG
beta: MGCRLLCCAVLCLLGAVPMETGVTQTPRHLVMGMTNKKSLKCEQHLGHNAMYWYKQSAKKPLELMFVYSLEERVENNSVPSRFSPECPNSSHLFLHLHTLQPEDSALYLCASSQEVGTVPNQPQHFGDGTRLSILEDLNKVFPPEVAVFEPSEAEISHTQKATLVCLATGFFPDHVELSWWVNGKEVHSGVSTDPQPLKEQPALNDSRYCLSSRLRVSATFWQNPRNHFRCQVQFYGLSENDEWTQDRAKPVTQIVSAEAWGRADCGFTSVSYQQGVLSATILYEILLGKATLYAVLVSALVLMAMVKRKDF

Tests used:
Type in all cases: cell-based, human
[1] = test system: IGRP 305-324 or IGRP 241-260 peptide presented by HLA-DR4-expressing K562 cells; assay: Activation marker response of TCR-transduced CD4+ T cells to cognate peptide; settings: for cognate peptide concentration required for maximal surface marker expression: relative to cells expressing T1D5-1; for upregulation of functional markers CD154, CD69 and CD137: stimulation with cognate peptide overnight, day 8
Method: (§1) FIGS. 29A-29E show editing of CD4+ T cells to express one of a panel of TCRs, and phenotypic characterization of edited cells.
FIGS. 30A-30B show dose response of T1D TCR-expressing CD4+ T cells to stimulation with IGRP 305-324 peptide. Cells were cultured in the presence of HLA-DR4-expressing K562 cells for a 20 hours, and analyzed by flow cytometry. […] Dashed lines=50% maximum response of each cell population (by donor).
CD4+ cells were thawed and stimulated with anti-CD3/CD28 Dynabeads in vitro (day 0). On day 1 post-thawing, cells were inoculated with a lentivirus encoding a T1D2, T1D5-1, or T1D4 TCR (day 1). On day 3 post-thaw, Dynabeads were removed. In parallel, artificial antigen-presenting cells were generated by transducing K562 cells with a lentivirus encoding an HLA-DR4 capable of presenting IGRP 305-324 or IGRP 241-260. On day 7 post-thaw, transduced CD4+ T cells were stimulated by addition of a given amount of cognate IGRP peptide in the presence of transduced K562 cells and culture overnight. On day 8 post-thaw, expression of activation-associated markers CD69, CD137, and CD154 (FIG. 29B).
In another experiment, CD4+ T cells transduced with a lentivirus encoding T1D2 TCR or control TCR (ZNT266) were cultured in a 3:1 ratio with K562 cells pulsed with IGRP 305-324 peptide at a range of concentrations, as described in the preceding paragraph. After 20 hours of co-culture, expression of surface markers CD154 and CD137 were analyzed by flow cytometry, to quantify sensitivity of T1D2 TCR-expressing cells to cognate peptide IGRP 305-324.

[2] = test system: IGRP 305-324 or IGRP 241-260 peptide presented by HLA-DR4-expressing K562 cells; assay: Cytokine production of TCR-transduced CD4+ T cells to cognate peptide; settings: 5 hours stimulation with cognate peptide, day 14
Method: as §1
On day 14, transduced CD4+ T cells were stimulated for 5 hours with cognate IGRP peptide in the presence of transduced K562 cells, and the production of cytokines IFN-γ and TNF-α to evaluate T cell activation (FIG. 29D).

[3] = test system: T1D2 TCR-expressing CD4+ T cells; assay: Alanine-substituted and potential off-target peptide stimulation of T1D2 TCR cells
Method: FIGS. 31A-31D show tolerance of T1D2 to substitutions in IGRP 305-324 peptide. FIGS. 31A and 31B show activation of T1D2 TCR-expressing CD4+ T cells, as measured by CD154 expression intensity (FIG. 31A) or % CD137-expressing cells (FIG. 31B) in the presence of antigen-presenting cells pulsed with one of a panel of alanine-substituted peptides. T cells were cultured for 20 hours in the presence of HLA-DR4-expressing K562 cells that had been pulsed with IGRP 305-324 peptide, or one of a panel of peptides having an alanine substitution at different positions, and analyzed by flow cytometry. FIGS. 31C and 31D show activation of T1D2 TCR-expressing CD4+ T cells, as measured by CD154 expression intensity (FIG. 31C) or % CD137-expressing cells (FIG. 31D) in the presence of antigen-presenting cells pulsed with one of a panel of potential off-target peptides derived from pathogens of human relevance. “Control” indicates CD4+ T cells expressing ZNT266 TCR. […]
After 20 hours of co-culture, expression of surface markers CD154 and CD137 (among CD3+CD4+ cells) were analyzed by flow cytometry, to quantify the potential for off-target activation of cells expressing T1D2 TCR. […]

[4] = test system: cognate peptide (IGRP305-324, IGRP241-260, PPI76-90) and APC; assay: Peptide dose response (functional avidity) of TCR-transduced CD4+ T cells; settings: for IGRP305-324 peptide concentration at which proliferation was reached: T1D5-1: similar to about 70% proliferation, T1D2: proliferation only at this concentration
Description: FIG. 39A depicts a graph showing peptide dose response of T cells expressing T1D2, T1D4, or PPI76 TCR. CD4+ T cells transduced with T1D2, T1D4, or PPI76 TCR were co-cultured with APC in the presence of various concentration of their cognate peptide, IGRP305-324, IGRP241-260, PPI76-90, respectively for 4 days. Representative of three independent experiments.
FIG. 39C depicts a graph showing peptide dose response of T cells expressing T1D2, T1D5-1, or T1D5-2 TCR. CD4+ T cells transduced with T1D2, T1D5-1 or T1D5-2 TCR were co-cultured with APC in the presence of various concentration of their cognate peptide, IGRP305-324 for 4 days. Representative of three independent experiments. For dose response of T cells in A and C, T cells were labeled with CTV before the co-culture and cell proliferation was measured by CTV dilution.
Therefore, these unique features were used as way to begin to explore the impact of TCR affinity on islet-specific EngTregs function. […] We measured proliferation of polyclonal islet-specific Teff in the presence of islet-specific peptides and mDC and EngTregs with T1D2, T1D4 or PPI76. The data were normalized by suppressive activity obtained from suppression assay set up in parallel using CD3/CD28 beads (FIG. 39G). This latter assay provided a baseline control for EngTreg function, as this activation method is not impacted by TCR avidity. […] We then compared T1D2, T1D5-1 and T1D5-2, each of which recognize the same cognate peptide, IGRP305-324, in the context of HLA-DR0401 (Table E6-1) (31). […] Similarly, we measured suppressive capacity of EngTregs expressing T1D2, T1D5-1, or T1D5-2 on proliferation of polyclonal islet Teff in response to islet-specific peptides.

[5] = IGRP 305-324, 20 hours co-culture, 3:1 with K562 cells

Row | Molecule | EC50 of % CD137-expressing cells [1, 5] | EC50 of CD154 expression [1, 5] | sensitivity to stimulation with cognate peptide IGRP 305-324 ([1]; compared to cells expressing ZNT266 TCR) | cognate peptide concentration required for maximal surface marker expression [1] | upregulation of functional markers CD154, CD69 and CD137 [1] | IFN-γ and TNF-α production [2] | recognition of predicted potential off-target peptides derived from human pathogens [3] | IGRP305-324 peptide concentration at which proliferation was reached [4] | functional avidity ([4]; comparison of T1D2, T1D4 and PPI76 TCR) | functional avidity ([4]; comparison of T1D2, T1D5-1 and T1D5-2 (same cognate peptide IGRP305-324)) | cognate peptide concentration giving similar (more than 20%) proliferation [4]
1 | B1 | 0.03 to 0.1 µg/mL | 0.1 to 0.3 µg/mL | substantially more sensitive | Lower concentrations of cognate peptide were required | dose-dependent manner | dose-dependent manner | does not recognize any | 3 µg/mL | lowest functional avidity among the three TCRs | lowest functional avidity | –
2 | B2 | – | – | – | Lower concentrations of cognate peptide were required | dose-dependent manner | dose-dependent manner | – | – | – | – | 0.1 µg/mL
3 | B3 | – | – | – | – | dose-dependent manner | dose-dependent manner | – | 1.0 µg/mL | – | – | –

From patent US20250213686A1, “COMPOSITIONS AND METHODS FOR ENGINEERING TREG CELLS FOR TREATMENT OF DIABETES” (Seattle Children's Hospital (dba Seattle Children's …, priority 2021, published 2025)
